Reference: a protein production outcome set (Wang et al. 2014)

Experiment: label from the status in PepcDB records
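Also: failed if final PepcDB status was selected cloned or expressed and not failed if soluble or beyond.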

MYELVSPVNPLAVLRYIGHLLLVFSAVLLVPVLAAFVLGETDAAVIYGSSALVTAGTGFLLQKVLPDFELEIKEALILAALTFPLCSLVSAVPMAFSTGMPFLDAYFECVSGLTTTGLSLAPPSPTRLFFFTRSWLQWIGGIGIIVLVLGILIRPGTTAFRLYRVNFGESRIRPSVITTARTLGTVYLVLTLLSLLLLLFSGMPFYDAVCHTLSSISTGGFSTQAGSIGAYGGFLIPFLITVSCIMGAISFSLYPEVLKEPGTLIRDPQVRYLFGLSLLGTALFVLTLSGGEGGPELFHMMPDAVFQVVSALTGTGFSTIDLAPLSDASKGFLSAIMCIGGSIGSTTGGIKLFRLIVIVQLIKLVFYRFFLPREAITPLKVKSQVVDPDDFYRIMTYVLLYLAVLVFSAFIFMFYGINSADAIFETSSALATAGLSTGVTTPGMPSLLKLVLCADMLLGRVEIVPLFILLLPRTWFEINRNTGEKRSSKDTA
protein production: failed

MHFRDTSERQSDAVNESSLDSVHLQMIKGMLYQQRQDFSSQDSVSRKKVLSLNLKQTSKTEEIKNVLGGSTCYNYSVKDLQEISGSELCFPSGQKIKSAYLPQRQIHIPAVFQSPAHYKQTFTSCLIEHLNILLFGLAQNLQKALSKVDISFYTSLKGEKLKNAENNVPSCHHSQPAKLVMVKKEGPNKGRLFYTCDGPKADRCKFFKWLEDVTPGYSTQEGARPGMVLSDIKSIGLYLRSQKIPLYEECQLLVRKGFDFQRKQYGKLKKFTTVNPEFYNEPKTKLYLKLSRKERSSAYSKNDLWVVSKTLDFELDTFIACSAFFGPSSINEIEILPLKGYFPSNWPTNMVVHALLVCNASTELTTLKNIQDYFNPATLPLTQYLLTTSSPTIVSNKRVSKRKFIPPAFTNVSTKFELLSLGATLKLASELIQVHKLNKDQATALIQIAQMMASHESIEEVKELQTHTFPITIIHGVFGAGKSYLLAVVILFFVQLFEKSEAPTIGNARPWKLLISSSTNVAVDRVLLGLLSLGFENFIRVGSVRKIAKPILPYSLHAGSENESEQLKELHALMKEDLTPTERVYVRKSIEQHKLGTNRTLLKQVRVVGVTCAACPFPCMNDLKFPVVVLDECSQITEPASLLPIARFECEKLILVGDPKQLPPTIQGSDAAHENGLEQTLFDRLCLMGHKPILLRTQYRCHPAISAIANDLFYKGALMNGVTEIERSPLLEWLPTLCFYNVKGLEQIERDNSFHNVAEATFTLKLIQSLIASGIAGSMIGVITLYKSQMYKLCHLLSAVDFHHPDIKTVQVSTVDAFQGAEKEIIILSCVRTRQVGFIDSEKRMNVALTRGKRHLLIVGNLACLRKNQLWGRVIQHCEGREDGLQHANQYEPQLNHLLKDYFEKQVEEKQKKKSEKEKSKDKSHS
protein production: failed

MAVYTDITEDELRNFLTQYDVGSLTSYKGIAEGVENSNFLLHTTKDPLILTLYEKRVEKNDLPFFLGLMQHLAAKGLSCPLPLPRKDGELLGELSGRPAALISFLEGMWLRKPEAKHCREVGKALAAMHLASEGFEIKRPNALSVDGWKVLWDKSEERADEVEKGLREEIRPEIDYLAAHWPKDLPAGVIHADLFQDNVFFLGDELSGLIDFYFACNDLLAYDVSICLNAWCFEKDGAYNVTKGKALLEGYQSVRPLSEAELEALPLLSRGSALRFFLTRLYDWLTTPAGALVVKKDPLEYLRKLRFHRTIANVAEYGLAGE
protein production: not failed

MEYYFTAQKLAVGYDNRPLIENIDFSLKRGEILTLIGPNGAGKSTILKSIARQLSLVSGTIYLDKSDVVTMNGNEFAKKMAVVLTDKLKTELMTCYDVVATGRYPYTGRFGVLSDEDKKAVDEAMELVNVSQIKDKDFTKISDGQRQRVMLSRAICQQPEIIVLDEPTSYLDIKYKLEFLSILQRLKRQKNLTVIMSLHELDMAKRVSDHILCIDGRYVDRYGTPEEVFTDQYVSGLFGITAGSLEHHHHHH
protein production: not failed

MIGWTLGQYFFIRYLKMTCYFLGGIFVLALLIDFTENSGRLSSLPRYTAKDAFLISVLRIPFIMQQLIPFIALFSAMAMLISLNRKSELVVTRSIGISAWQFLMPACFGAFLFGLFSILLVNPLAAWGFSQAERMMTEWRSKNNNVLTSLHNTRILWLTQRTHSGRTTIGAKSITDQGLSLIDATFVQYNDNATIKNWINSRKATLINGAWLLTDGTIYKIGHPPEKFSELQIQTTLKPEFLTERLVNPATIPFYQLPTKIMIARSFGYSANNFDMYLQSLIALPALLIAMTLIAAVVSLNFTRFGQSKILILGGVIAGFSLYVISILVQAFGNAGYIPPIIAAWTPVFIALFLGISFLLHKEDG
protein production: failed

MTNQRTMVVGYDGSEESNLAVQWAAKHAILRDCSLHVVHCSLWVLLSHNRGPVPGVADSGLERAAQKVLEEGMALAKETVPDLEVRTTLLHGMPRDHLAHVSVGAEMLVLGSRGLGGFMGLLVGSVSLEMAATAECPVVVIRADDHPEGPVLLAVDDAGSPAALEDACDFAAATGADLMIVHVLHEPVGYRRLREPVEAYPEAEALLDSVLSQARHKAPGIAVTGELLVDASFSKAIVKASQGARITVLGTKGHGLIKGTIGSTAHAVLHHAHSPVLVSRRRATSEVA
protein production: failed

MKEICMLLVAVILWGTAIAPTKWALESIQPFTLLFIRLFFAGGICMIFSFKELQKSVVHKKVPWKRMSLLAFTGVAGYFMFTSYGISLTSGLHVSIIDAALPLVTILFSALFLKEEIRLNYWIGIILGAIGVLFITIPSKSANQEVSLIGDILILLSTFLFAFYTVLLKRPKQEQYLSNEVFTTLTLIIGAVILLPFALVEIFYYGLPKVETWKTVLSVIYLVIGATILAYWFWNKALERVSASVSGLYLNALPLISIITSIILLNESLTWRVIMGASLVLIGVGWADKQKLCNLLKGNKVENRDC
protein production: failed

PITFWYGKYIILIPSSYFKSVIDKRLKYIILHEYAHAKNRDTLHLIIFNIFSIIMSYNPLVHIVKRKIIHDNEVEADRFVLNNINKNEFKTYAESIM
protein production: failed

MIIPTVPTTDELLDKGFRRARKAASLKRSSKIPGQKKAKVIESTRVQTACQVIRDRLKMIIQRIPDIESLPEFYQDYIDVTVGVDELKKSLGALNWAVGILNQLESDYMARIKRSKPSDASHLRREAFGRISSVIKRIEGDLDFLDFAKNKLRNMPTVDLDAFTVVIAGFPNVGKSTLLRTLTGAEPEVADYPFTTKGIQIGHLERKWKRIQVIDTPGLLDRPVEDMNNIELQAMVALENIADVIMFIFDASETCGYTLESQYSLYLGIRSVFDIPVVTVFNKMDLAENVKYLEEYINMVEDPLKVSAFEGRGVSKIIKKLEGLYEKETREAHDNV
protein production: failed

MWMPPRPEEVARKLRRLGFVERMAKGGHRLYTHPDGRIVVVPFHSGELPKGTFKRILRDAGLTEEEFHNL
protein production: not failed

MERDGCAGGGSRGGEGGRAPREGPAGNGRDRGRSHAAEAPGDPQAAASLLAPMDVGEEPLEKAARARTAKDPNTYKVLSLVLSVCVLTTILGCIFGLKPSCAKEVKSCKGRCFERTFGNCRCDAACVELGNCCLDYQETCIEPEHIWTCNKFRCGEKRLTRSLCACSDDCKDKGDCCINYSSVCQGEKSWVEEPCESINEPQCPAGFETPPTLLFSLDGFRAEYLHTWGGLLPVISKLKKCGTYTKNMRPVYPTKTFPNHYSIVTGLYPESHGIIDNKMYDPKMNASFSLKSKEKFNPEWYKGEPIWVTAKYQGLKSGTFFWPGSDVEINGIFPDIYKMYNGSVPFEERILAVLQWLQLPKDERPHFYTLYLEEPDSSGHSYGPVSSEVIKALQRVDGMVGMLMDGLKELNLHRCLNLILISDHGMEQGSCKKYIYLNKYLGDVKNIKVIYGPAARLRPSDVPDKYYSFNYEGIARNLSCREPNQHFKPYLKHFLPKRLHFAKSDRIEPLTFYLDPQWQLALNPSERKYCGSGFHGSDNVFSNMQALFVGYGPGFKHGIEADTFENIEVYNLMCDLLNLTPAPNNGTHGSLNHLLKNPVYTPKHPKEVHPLVQCPFTRNPRDNLGCSCNPSILPIEDFQTQFNLTVAEEKIIKHETLPYGRPRVLQKENTICLLSQHQFMSGYSQDILMPLWTSYTVDRNDSFSTEDFSNCLYQDFRIPLSPVHKCSFYKNNTKVSYGFLSPPQLNKNSSGIYSEALLTTNIVPMYQSFQVIWRYFHDTLLRKYAEERNGVNVVSGPVFDFDYDGRCDSLENLRQKRRVIRNQEILIPTHFFIVLTSCKDTSQTPLHCENLDTLAFILPHRTDNSESCVHGKHDSSWVEELLMLHRARITDVEHITGLSFYQQRKEPVSDILKLKTHLPTFSQED
protein production: failed

MVQIAGTPVPLSAKSRGPNALSSLLAALFLLLSQPASGAEAKQCIDNAELDAADKAFNSLHYAKADSLYQSMLQTGDQSSTLYWKLARLNISIAEAIDPSERKKRIPFYNKAVEYARKSVQLDENNASAHTWLAAALALKADKIGAKEKLNRAAEIKRELDKALALNPNDDVAWSMLGSYNFEASKIGWFSRFMGSTFVGKMPKGSREEAEKDFKKAISLNPRVIRHYHELALLYLEEDRKQEALNTLRIAETRPVLMKSDVRRLKEIKKLIAKLSKEIEEK
protein production: failed

MFWIVLIVILLLALAGLFFVRAQSEREWMREVSAWQEKKGEKQAELPEIKDGMPDFPEFSLMLFHAVKTAVYWLFVGVVRFCRNYLAHESEPDRPVPPASANRADVPTASDGYSDSGNGTEEAETEAAEAAEEEAADTEDIATAVIDNRRIPFDRSIAEGLMQSESKTSPVRPVFKEITLEEATRALSSAALRETKKRYIDAFEKNGTAVPKVRVSDTPMEGLQIIGLDDPVLQRTYSRMFDADKEAFSESADYGFEPYFEKQHPSAFSAVKAENARNAPFRRHAGQEKGQAEAKSPDVSQGQSVSDGTAVRDARRRVSVNLKEPNKATVSAEARISRLIPESRTVVGKRDVEMPSETENVFTETVSSVGYGGPVYDEAADIHIEEPAAPDAWVVEPPEVPEVAVPEIDILPPPPVSEIYNRTYEPPAGFEQAQRSRIAETDHLAADVLNGGWQEETAAIADDGSEGAAERSSGQYLSETEAFGHDSQAVCPFEDVPSERPSCRVSDTEADEGAFQSEETGAVSEHLPTTDLLLPPLFNPEATQTEEELLENSITIEEKLAEFKVKVKVVDSYSGPVITRYEIEPDVGVRGNSVLNLEKDLARSLGVASIRVVETIPGKTCMGLELPNPKRQMIRLSEIFNSPEFAESKSKLTLALGQDITGQPVVTDLGKAPHLLVAGTTGSGKSVGVNAMILSMLFKAAPEDVRMIMIDPKMLELSIYEGITHLLAPVVTDMKLAANALNWCVNEMEKRYRLMSFMGVRNLAGFNQKIAEAAARGEKIGNPFSLTPDDPEPLEKLPFIVVVVDEFADLMMTAGKKIEELIARLAQKARAAGIHLILATQRPSVDVITGLIKANIPTRIAFQVSSKIDSRTILDQMGAENLLGQGDMLFLPPGTAYPQRVHGAFASDEEVHRVVEYLKQFGEPDYVDDILSGGGSEELPGIGRSGDGETDPMYDEAVSVVLKTRKASISGVQRALRIGYNRAARLIDQMEAEGIVSAPEHNGNRTILVPLDNA
protein production: failed

MVSNGSIIHVNQNQFMMLVDGGKIVDYTAEPGYFKVENSASPSLFGGQFGDALKETFSRFKFGGTTPMKQEVFYVNLQEIKGIKFGTPNPLQYFDNFYNAELFLRTFGNYSIKITDPIKFFKEACPRDAENVHIDEINEQYLSEFLEALQAAISQMSMEGERISFIPSKGTVLSKHMSEILDDSWKELRGMEVLSVGIASISYDDESKELINMRNKGAMLGDPGVREGYVQGSIARGMEAAGSNQAGAGMAFMGMGMGMNAAGGFMGQASQTNMQQMQMNQAAQRAAQGAGQQQGAGAKAAGEWFCTECGHKNTGKFCAECGTPKPQGSGCPSCGAELKAGAKFCPECGTKLLEHHHHHH
protein production: not failed
